Biological target: T1, soluble HLA class II molecule DRA1*0101/DRB1*0401 (human, UniProt P01903 26-216; P01911 30-227, limits assumed)
T1 construct: Recombinant soluble MHC class II heterodimer expressed in SC-2 cells (as in Aichinger et al., 1997); also called soluble DRA1*0101/DRB1*0401 molecules
T1 MHC II alpha: not shown
T1 MHC II beta: not shown
Experiment: competition assay vs biotinylated UD4, L243 capture ELISA

Binder | binding result
TIFRYVEGKSLYE (synthetic peptide) [p416-428 of Seq ID 142 (LPXTGVI)] | no binding (tested: 200 µM)
YDYKYFYSYKVVKGVKKYFSFSQS (synthetic peptide) [p275-299 of Seq ID 94 (EMPBP)] | binds
GESLNIIASRYGVSVDQLMAANNLRG (synthetic peptide) [p96-121 of Seq ID 89 (ORF1hom2)] | no binding (tested: 200 µM)
ALVFEKSVVIANVGDSRA (synthetic peptide) [p107-124 of Seq ID 114 (POV2)] | no binding (tested: 200 µM)
AGGIFYNQTNQQLLVLCDGMGGHK (synthetic peptide) [p23-47 of Seq ID 114 (POV2)] | no binding (tested: 200 µM)
IKLVSYDTVKDYAYIRFSVSNGTKA (synthetic peptide) [p209-233 of Seq ID 142 (LPXTGVI)] | binds
VIVSTLFLISQHQAQA (synthetic peptide) [p24-40 of Seq ID 56 (LPXTGV)] | no binding (tested: 200 µM)
MHVPSFQNNTTATHQN (synthetic peptide) [p254-270 of Seq ID 94 (EMPBP)] | binds
FPYIPDKAVYNAIVKVVVANIGYEGQ (synthetic peptide) [p620-646 of Seq ID 56 (LPXTGV)] | binds
YKVVKGVKKYFSFSQSNGYKIG (synthetic peptide) [p284-305 of Seq ID 94 (EMPBP)] | binds
MTLPLMALLALSSIVAFVLPRKRKN (synthetic peptide) [p623-647 of Seq ID 142 (LPXTGVI)] | no binding (tested: 200 µM)
PKLRSFYSIRKSTLGVASVIVST (synthetic peptide) [p6-28 of Seq ID 56 (LPXTGV)] | binds
KEFKSFYSIRKSSLGVASVAISTL (synthetic peptide) [p6-30 of Seq ID 142 (LPXTGVI)] | binds
FMVEGQRVRTISTYAINNTRCTIF (synthetic peptide) [p395-418 of Seq ID 142 (LPXTGVI)] | no binding (tested: 200 µM)
KLLVLTMSTLFATQIMNSNHAKASV (synthetic peptide) [p4-29 of Seq ID 94 (EMPBP)] | binds
PSLNIKNVNYQYAVPSYSPT (synthetic peptide) [p306-326 of Seq ID 94 (EMPBP)] | binds
MNYGYGPGVVTSRTISASQA (synthetic peptide) [p240-260 of Seq ID 74 (ORF1hom1)] | binds
QSWWGLYALLGMLALFIPKFRKESK (synthetic peptide) [p871-896 of Seq ID 56 (LPXTGV)] | no binding (tested: 200 µM)
IKINHFCVVPQINSFKVIPPYGHNS (synthetic peptide) [p226-251 of Seq ID 94 (EMPBP)] | no binding (tested: 200 µM)
NNLRGYLIMPNQTLQIPNG (synthetic peptide) [p117-136 of Seq ID 89 (ORF1hom2)] | no binding (tested: 200 µM)
KDYAYIRFSVSNGTKAVKIVSSTHFNN (synthetic peptide) [p218-244 of Seq ID 142 (LPXTGVI)] | binds

— patent publication US20050037444A1 (INTERCELL, published 2005)
